# Earlier results as cited in PMC4525192 (European Journal of Nuclear Medicine and Molecular Imaging, 2014).
# Tested on: tumour
# Settings: intravenously administered
structure (smiles),measurement,value
"C[C@@H](O)[C@@H]1NC(=O)[C@H](CCCCN)NC(=O)[C@@H](Cc2c[nH]c3ccccc23)NC(=O)[C@H](Cc2ccc(O)cc2)NC(=O)[C@@H](NC(=O)[C@@H](Cc2ccccc2)NC(=O)CN2CCN(CC(=O)O)CCN(CC(=O)O)CCN(CC(=O)O)CC2)CSSC[C@@H](C(=O)N[C@H](CO)[C@@H](C)O)NC1=O [DOTATOC, (DOTA^0-Phe^1-Tyr^3) octreotide]",Time after injection at which 80 % of Umax is reached,45 min
same,Time of tumoral accumulation maximum (Umax) after injection,about 70 min
